Laboratory results taken from article PMC10538664.
pKd: −log10 of the molar value.

The substances below were run against prototype SARS-CoV-2 tandem RBD homotrimer (PPP) (SARS-CoV-2) (UniProt P0DTC2) (assay: SPR).

Point of comparison: CR3022, pKd 7.09. Against it:
- S309 — 2.31 log units higher, 9.40
- CV07-270 — 0.84 log units higher, 7.93
- C022 — 1.65 log units higher, 8.74
- REGN10933 — 1.18 log units higher, 8.27
